# Assay results reported in patent publication US20070099822A1, “Regulation of tissue mineralization and phosphate metabolism by asarm peptides” (priority 2003, published 2007).
# B1: Hu-MEPE: purified insect expressed full-length recombinant human MEPE (Matrix Extracellular Phosphoglycoprotein) (protein)
# chain: PTFQPQTEKTKQSCVEEQRQEEKNKDNIGFHHLGKRINQELSSKENIVQERKKDLSLSEASENKGSSKSQNYFTNRQRLNKEYSISNKENTHNGLRMSIYPKSTGNKGFEDGDDAISKLHDQEEYGAALIRNNMQHIMGPVTAIKLLGEENKENTPRNVLNIIPASMNYAKAHSKDKKKPQRDSQAQKSPVKSKSTHRIQHNIDYLKHLSKVKKIPSDFEGSGYTDLQERGDNDISPFSGDGQPFKDIPGKGEATGPDLEGKDIQTGFAGPSEAESTHLDTKKPGYNEIPEREENGGNTIGTRDETAKEADAVDVSLVEGSNDIMGSTNFKELPGREGNRVDAGSQNAHQGKVEFHYPPAPSKEKRKEGSSDAAESTNYNEIPKNGKGSTRKGVDHSNRNQATLNEKQRFPSKGKSQGLPIPSRGLDNEIKNEMDSFNGPSHENIITHGRKYHYVPHRQNNSTRNKGMPQGKGSWGRQPHSNRRFSSRRRDDSSESSDSGSSSESDGD
# System: Na+ dependent phosphate co-transport in human renal proximal tubule cell-line (Hu-CL8)
# Assay: 33PO4 uptake scintillation proximity assay (SPA) in Hu-CL8
# Format: cell-based
# Procedure: Measurement of ^33PO4 uptake and ^14C-α-methyl D-glucose uptake. A novel technique, scintillation proximity assay (SPA), was used to measure ^33PO4 uptake in-vitro. Human renal proximal-tubule primary cells (RPTEC) were purchased from Clonetics-Biowhittaker (Walkersville, Md.) (cat. no. CC2553) and were cultured and subcultured using the manufacturers recommended protocols, methods, buffers and media (cat. nos. CC3190, CC5034). Also a human renal cell-line (Hu-CL8) was cultured as previously described (Rowe et al. Candidate 56 and 58 kDa protein(s) responsible for mediating the renal defects in oncogenic hypophosphatemic osteomalacia. Bone 18(2):159-169, 1996). For ^33PO4-uptake measurement cells were grown in REBM media supplemented with 5% fetal calf serum (REBM-FCS) to 80% confluence (Clonetics-Biowhitaker, Walkersville, Md.: cat. nos. CC2553, CC3190 and CC5034) and seeded into 96 well (3000 cells/well) cytostar-T scintillating-microplates (Amersham-Pharmacia Biotech, Piscataway, N.J.: cat. no. RPNQ 0162). Cells were then cultured in 200 μL of REBM-FCS media for 24 h. Media was then replaced with serum free media (REBM) and the cells incubated for a further 3-4 h with Hu-MEPE, PTH (1-34) or media control respectively in REBM media. The concentrations of PTH (1-34) and Hu-MEPE were […] and each experimental dose was repeated eight times for statistical analysis. Following incubation media was removed and replaced with either phosphate uptake buffer (PUB) consisting of 150 mM NaCl/1 mM Cacl2/1.8 mM MgSO4/10 mM HEPE pH 7.0/0.1 mM phosphate buffer pH 7.0 and 3 uCi mL^−1 33P as orthophosphoric acid (18 MBq/mL or 5775.7 Gbq/mg stock solution Perkin Elmer, Wellesley, Mass.: cat. no. NEZ080). In order to determine the Na-dependent phosphate co-transporter activity a separate set of control cells were incubated with the same buffer but with choline chloride (150 mM) substituted for NaCl (CHUB buffer). […] Due to the unique design of the 96 well cytostar-plate radioactive decay in solution is not detected by the counter. In contrast, radioisotope attached to or taken into the cells initiates release of plastic-scintillant photons that are detected by the top-counter photo-multiplier tube. Thus, no washes are required and direct CPM can be counted in living cells. […] Conversion of a tetrazolium salt to a colored formazan product by living cells was then measured at 490 nm using a 96 well multi-well spectrophotometer with KC-4 software (absorbance at 490 nm is directly proportional to the number of living cells). Na-dependent ^33P uptake was then calculated by subtracting background counts and the choline chloride non Na-dependent ^33P uptake and results expressed as ^33PO4 femtomoles/10^4-cells/6 min. […]
molecule,measurement,setting,value
B1,Vmax of percentage inhibition of 33PO4-uptake,Hu-CL8,9.1%
same,inhibition of Na+ dependent phosphate co-transport,Hu-CL8,dose-dependent in-vitro inhibition
same,Km of inhibition of 33PO4-uptake,"Hu-CL8, lineweaver-burke plot",23.8 ng/mL
